According to US6734342B2, “Theobromine synthase polypeptide of coffee plant and the gene encoding said polypeptide” (Nara Institute of Science and Technology, priority 2000, dated 2004):

B1: MXMT1: theobromine synthase polypeptide of Coffea arabica, amino acids 1 to 378 of SEQ ID NO: 1, expressed in E. coli as GST fusion (protein, listed as Caffea arabica)
chain: MELQEVLHMNEGEGDTSYAKNASYNLALAKVKPFLEQCIRELLRANLPNINKCIKVADLGCASGPNTLLTVRDIVQSIDKVGQEEKNELERPTIQIFLNDLFQNDFNSVFKLLPSFYRKLEKENGRKIGSCLISAMPGSFYGRLFPEESMHFLHSCYSVHWLSQVPSGLVIELGIGANKGSIYSSKGCRPPVQKAYLDQFTKDFTTFLRIHSKELFSRGRMLLTCICKVDEFDEPNPLDLLDMAINDLIVEGLLEEEKLDSFNIPFFTPSAEEVKCIVEEEGSCEILYLETFKAHYDAAFSIDDDYPVRSHEQIKAEYVASLIRSVYEPILASHFGEAIMPDLFHRLAKHAAKVLHMGKGCYNNLIISLAKKPEKSDV
B2: MTL2: Coffea arabica polypeptide homologous to MXMT1, encoded by clone #6 cDNA (SEQ ID NO: 6) (protein, listed as Caffea arabica)
chain: MELQEVLHMNGGEGDASYAKNSSFNQLVLAKVKPVLEQCVGELLRANLPNINKCIKVADLGCASGPNTLLTVRDIVQSIDDVRQEMKNELERPTIQVFLTDLFQNDFNSVFMLLPSFYRKLEKENGRKIGSCLIAAMPGSFHGRLFPEESMHFLHSSYSLQFLSQVPSGLVTELGITANKRSIYSSKASPPPVQKAYLDQFTKDFTTFLRIRSEELLSRGRMLLTCICKGDEFDGPNTMDLLEMAINDLVVEGHLEEEKLDSFNVPIYAASVEELKCIVEEEGSFEILYLETFKLRYDAGFSIDDDCQVRSHSPEYSDEHARAAHVASLLRSVYEPILANHFGEAIIPDIFHRFATNAAKVIRLGKGFYNNLIISLAKKPEKSDI
B3: SEQ.ID. NO: 3: Coffea arabica polypeptide homologous to MXMT1, encoded by clone #1 cDNA (SEQ ID NO: 4) (protein, listed as Caffea arabica)
chain: MELQEVLHMNGGEGEASYAKNSSFNQLVLAKVKPVLEQCVRELLRANLPNINKCIKVADLGCASGPNTLLTVWDTVQSIDKVKQEMKNELERPTIQVFLTDLFQNDFNSVFMLLPSFYRKLEKENGRKIGSCLIAAMPGSFHGRLFPEESMHFLHSSYSLQFLSQVPSGLVTELGITANKRSIYSSKASPPPVQKAYLDQFTKDFTTFLRMRSEELLSRGRMLLTCICKGDECDGPNTMDLLEMAINDLVAEGRLGEEKLDSFNVPIYTASVEEVKCMVEEEGSFEILYLQTFKLRYDAGFSIDDDCQVRSHSPVYSDEHARAAHVASLIRSVYEPILASHFGEAIIPDIFHRFATNAAKVIRLGKGFYNNLIISLAKKPEKSDI
B4: MTL3: Coffea arabica polypeptide homologous to MXMT1, encoded by clone #35 cDNA (SEQ ID NO: 8) (protein, listed as Caffea arabica)
chain: MELQEVLRMNGGEGDTSYAKNSAYNQLVLAKVKPVLEQCVRELLRANLPNINKCIKVADLGCASGPNTLLTVRDIVQSIDKVGQEKKNELERPTIQIFLNDLFPNDFNSVFKLLPSFYRKLEKENGRKIGSCLIGAMPGSFYSRLFPEESMHFLHSCYCLQWLSQVPSGLVTELGISTNKGSIYSSKASRLPVQKAYLDQFTKDFTTFLRIHSEELFSHGRMLLTCICKGVELDARNAIDLLEMAINDLVVEGHLEEEKLDSFNLPVYIPSAEEVKCIVEEEGSFEILYLETFKVLYDAGFSIDDEHIKAEYVASSVRAVYEPILASHFGEAIIPDIFHRFAKHAAKVLPLGKGFYNNLIISLAKKPEKSDV

What was measured:
[1] = Enzymatic activity measurement and identification of the reaction product by HPLC; format: biochemical; details: 200 μM 7-methylxanthine, 50 μM S-adenosylmethionine, 200 ng GST fusion protein, 27° C., 2 hours; UV 254 nm (FIG. 6)
Protocol: Using high performance liquid chromatography (HPLC), enzymatic activity of the MXMT1 fusion protein was measured and reaction product obtained from the enzymatic reaction was identified. The reaction mixture of 100 μl, containing 100 mM Tris-HCl (pH 7.5), 200 μM of substrate (7-methylxanthine, paraxanthine, theobromine), 50 μM of S-adenosylmethionine, 200 μM of MgCl2, 200 ng of GST fusion protein, was incubated at 27° C. for 2 hours. After incubation, the mixture was extracted with 1 ml of chloroform, the chloroform layer was recovered, then chloroform was evaporated by a speed back concentrator. The residue was dissolved in 50 μl of 12% acetonitrile. Then the solution was fractionated by HPLC (Shodex Rspak DS-613 column) provided with UV detection system. As the solution for development, 12% acetonitrile was used and the signal was detected for absorbance of 254 nm.
The MXMT1 fusion protein was reacted with S-adenosylmethionine and 7-methylxanthine, which is the substrate and the reaction product was analyzed by HPLC. […] Furthermore, S-adenosylmethionine and 7-methylxanthine was reacted with MXMT1 fusion protein and then theobromine was added to the reaction mixture. The peak position of the reaction product detected in FIG. 6A coincided with the position of theobromine, which was analyzed as the standard compound. […]

[2] = Measurement of enzymatic (methyl transferase) activity of GST fusion proteins by thin layer chromatography; format: biochemical; details: for activity as theobromine synthase: polypeptides with higher than 80% homology to SEQ.ID. NO: 1; for activity as a methyl transferase: substrates xanthine, 7-methylxanthine, theobromine, paraxanthine, theophylline, 200 μM each
Protocol: The open reading frame regions of MTL1 (Clone #1), MTL2 (Clone #6), MTL3 (Clone #35) and MXMT1 (Clone #45) were amplified by PCR (polymerase chain reaction). Then, they were optionally cloned into pGEX 4T-2 vector (Pharmacia) and E. coli (JM109) cells were transformed with the resulting plasmids. The obtained E. coli cells were cultured in LB liquid medium containing ampicillin. When OD600 of the culture reached to 0.5, IPTG (isopropyl thio-β-D-galactoside) was added to it and the final concentration of IPTG was made to 1 mM, then the mixture was further cultured at 16° C. for 6 hours. E. coli was desrupted by a sonicator and the protein of the purpose was purified by glutathione Sepharose 4B as a GST (glutathione S-transferase) fusion protein. Concentration of the protein was measured by the Bradford method. Each of the GST fusion protein (500 ng) was separated by SDS-PAGE (sodium dodecyl sulfate polyacrylamide gel electro-phoresis), then it was stained by CBB (coumasie Brilliant Blue) to confirm purification.
Measurement of enzymatic activity was performed using thin layer chromatography (TLC), based on the method of Kato et al. (Plant Physiol., 1996, 98, 629-636). In concrete, the reaction mixture of 100 μl, containing 100 mM Tris-HCl (pH 7.5), 200 μM substrate (xanthine, 7-methylxanthine, theobromine, paraxanthine, theophylline), 4 μM ^14C-labeled S-adenosylmethionine, 200 μM MgCl2, 200 ng GST fusion protein, was incubated at 27° C. for 2 hours. After the reaction, the resulting mixture was extracted with 1 ml of chloroform, the chloroform layer was recovered, then chloroform was evaporated by speed back concentrator. The residue was dissolved in 5 μl of 50% methanol solution, then the solution was developed by TLC (solvent for development was water:acetic acid:n-butanol=2:1:4, v/v/v). After the development, signal of radio activity was detected by image analyzer (Fuji BAS 2000). The result of enzymatic activity, which was measured on the fusion proteins derived from MTL2, MTL3 and MXMT1 using xanthine (X), 7-methylxanthine (7-Mx), theobromine (Tb), paraxanthine (Px) and theophylline (Tp) as the substrate, was shown in FIG. 5.

Molecule	reaction product identified by HPLC [1]	activity to synthesize theobromine, using 7-methylxanthine as the substrate ([2]; 200 μM 7-methylxanthine, 4 μM 14C-S-adenosylmethionine, 200 ng GST fusion protein, 27° C., 2 hours, TLC (FIG. 5))	relative activity to synthesize caffeine, using paraxanthine as the substrate ([2]; 200 μM paraxanthine, relative to the activity with 7-methylxanthine, TLC (FIG. 5))	activity as theobromine synthase [2]	activity as a methyl transferase ([2]; TLC (FIG. 5))
B1	theobromine was formed	potent activity to synthesize theobromine	15%		
B2				did not exhibit activity as theobromine synthase	did not exhibit activity as a methyl transferase
B3				did not exhibit activity as theobromine synthase	
B4				did not exhibit activity as theobromine synthase	did not exhibit activity as a methyl transferase
